In article doi:10.1101/2023.08.11.552962:
One block for each substance: values may come before it.

Columns and labels:
[1] = biological target: MacMCM, minichromosome maintenance protein from Mancarchaeum acidiphilum (Mancarchaeum acidiphilum); experiment: SEC
[2] = biological target: MacMCM^E391Q, Walker B mutant of MacMCM (Mancarchaeum acidiphilum); experiment: SEC
[3] = biological target: MacMCM^ΔWHD.E391Q, MacMCM without the winged helix domain and with the Walker B mutation E391Q (Mancarchaeum acidiphilum); experiment: SEC
[4] = biological target: MacMCM^ΔWHD.E391Q, MacMCM without the winged helix domain and with the Walker B mutation E391Q (Mancarchaeum acidiphilum); experiment: crystal structure

stoichiometry N [1]: 6
Substance: MacMCM, minichromosome maintenance protein from Mancarchaeum acidiphilum (enzyme)

stoichiometry N [2]: 6
Substance: MacMCM^E391Q, Walker B mutant of MacMCM (enzyme)

stoichiometry N [3]: 6
stoichiometry N [4]: 6
Substance: MacMCM^ΔWHD.E391Q, MacMCM without the winged helix domain and with the Walker B mutation E391Q (domain or fragment)
